These are literature values, as cited in US20040253306A1, “Sustained release formulations for nifedipine dextromethorphan, and danazol” (priority 2001, published 2004).

The conditions of the series: oral; free vs liposomes having ceramides.

As usually defined, the bioavailability is dose-corrected exposure relative to a reference, in per cent. On to superoxide dismutase, for which the bioavailability is given as 14%.
